Key:
mouse Gas6 [1] = biological target: T1, mouse Gas6 (mouse, UniProt Q61592 46-674, limits assumed); assay: KinExA
T1 construct: Used both for the KinExA value against mouse Gas6 and for the endogenous Gas6 in the serum of the nude mice; also called Gas6 (in serum of mice)
T1 sequence (looked up): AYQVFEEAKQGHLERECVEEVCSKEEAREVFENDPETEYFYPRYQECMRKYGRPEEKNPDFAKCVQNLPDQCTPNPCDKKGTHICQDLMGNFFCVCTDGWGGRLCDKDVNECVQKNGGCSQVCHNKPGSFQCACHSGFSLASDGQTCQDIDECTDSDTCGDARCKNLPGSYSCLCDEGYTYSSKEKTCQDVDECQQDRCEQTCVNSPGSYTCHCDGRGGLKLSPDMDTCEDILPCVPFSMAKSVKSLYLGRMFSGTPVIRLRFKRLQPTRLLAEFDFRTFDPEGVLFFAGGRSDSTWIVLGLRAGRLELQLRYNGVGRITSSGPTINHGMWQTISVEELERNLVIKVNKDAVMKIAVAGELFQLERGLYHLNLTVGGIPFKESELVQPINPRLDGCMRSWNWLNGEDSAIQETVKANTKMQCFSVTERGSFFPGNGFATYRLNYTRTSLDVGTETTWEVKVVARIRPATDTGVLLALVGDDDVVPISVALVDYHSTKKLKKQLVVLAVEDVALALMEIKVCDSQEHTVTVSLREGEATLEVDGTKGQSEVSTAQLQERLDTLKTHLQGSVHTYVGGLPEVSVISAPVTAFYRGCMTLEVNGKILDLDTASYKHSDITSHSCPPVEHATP
Procedure: (§1) A KinExA 3200 instrument (Sapidyne Instruments Inc.) was used to measure equilibrium binding and association rate constants for the Gas6-Axl interactions. […] Adsorption coating of 200 mg of beads was performed using 45 μg of protein at room temp for 1 h. The protein solution was then removed and beads were blocked using PBS with 1% BSA for 2 h at room temp. Beads were stored in blocking buffer at 4° C. and used within two weeks. All binding reactions were carried out in phosphate buffered saline with 1 mg/ml BSA and 0.02% sodium azide.
(§2) For equilibrium binding studies, three independent titrations were completed for each Axl Ig1 or Axl Fc fusion unless otherwise noted. […] Each sample was analyzed twice and data from the three independent equilibrium binding experiments were globally analyzed using n-curve analysis in the KinExA Pro 3.6.2 software (Sapidyne Instruments Inc.) to obtain the Kd value.

mouse Gas6 [2] = biological target: T1, mouse Gas6; assay: KinExA; column Kd(pM) mGas6
Procedure: as §1, §2

Protein S (OriGene) = biological target: T2, Protein S (OriGene) (UniProt P07225 42-676); assay: KinExA signal test on MYD1 Fc coated beads, Protein S probed with an anti-c-Myc antibody
T2 construct: Carries a c-Myc tag by the detection used
T2 sequence (looked up): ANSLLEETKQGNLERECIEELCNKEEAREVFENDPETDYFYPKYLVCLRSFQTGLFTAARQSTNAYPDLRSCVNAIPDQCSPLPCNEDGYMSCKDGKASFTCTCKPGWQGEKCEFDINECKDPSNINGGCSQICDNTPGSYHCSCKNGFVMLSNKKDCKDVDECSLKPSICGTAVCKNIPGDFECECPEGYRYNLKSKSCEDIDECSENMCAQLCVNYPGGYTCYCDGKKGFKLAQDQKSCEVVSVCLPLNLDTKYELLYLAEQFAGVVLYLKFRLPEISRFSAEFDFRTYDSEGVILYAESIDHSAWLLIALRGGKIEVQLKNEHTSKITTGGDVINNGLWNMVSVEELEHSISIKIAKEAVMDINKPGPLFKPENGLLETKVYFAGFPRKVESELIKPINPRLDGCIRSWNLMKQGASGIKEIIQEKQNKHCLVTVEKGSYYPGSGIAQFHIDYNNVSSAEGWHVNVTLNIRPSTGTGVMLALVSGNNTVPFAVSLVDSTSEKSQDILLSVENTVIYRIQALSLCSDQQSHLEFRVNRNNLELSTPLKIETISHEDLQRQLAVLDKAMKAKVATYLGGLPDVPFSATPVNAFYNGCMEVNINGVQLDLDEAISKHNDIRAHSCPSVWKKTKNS
Procedure: as §1
To test binding of Protein S (OriGene) to MYD1, 700 μl of a 10 nM solution was flowed over the capture beads.

- Kd (mouse Gas6 [1]): ~1 pM
- Kd (mouse Gas6 [2]): 1.1 pM
- binding result (Protein S (OriGene)): no binding (tested: 10 nM)
B1: MYD1 Fc (Fc fusion)
chain: APRGTQAEESPFVSNPGNITGARGLTGTLRCQLQVQGEPPEVHWLRDGQILELADSTQTQVPLGEDEQGDWIVASQLRITSLQLSDTGQYQCLVFLGHQTFVSQPGYVRLEGLPYFLEEPEDRTVAANTPFNLSCQAQGPPEPVDLLWLQDAVPLATAPGHGPQRSLHVPGLNKTSSFSCEAHNAKGVTTSRTATITVLPQQPRNLHLVSRQPTELEVAWTPGLSGIYPLTHCTLQAVLSNDGMGIQAGEPDPPEEPLTSQASVPPHQLRLGSLHPHTPYHIRVACTSSQGPSSWTHWLPVETPEGVPLGPPENISATRNGSQAFVHWQEPRAPLQGTLLGYRLAYQGQDTPEVLMDIGLRQEVTLELQGDGSVSNLTVCVAAYTAAGDGPWSLPVPLEAWRPGQAQPVHQLVKEPSTPAFS
notes: Disulfide-linked dimer from HEK cells; also the capture reagent on the KinExA beads; also called MYD1 Fc fusion; not shown: Fc domain of a human IgG1

Reference: patent US20160266136A1 (Stanford University, published 2016)
